Data from the supplement of paper PMC10567573.

B1: KLHDC10 (parent)
chain: FGGTGIPFGESNGNGVHVCNVKYK

Variants of: B1
Test: protein stability index of a GFP-peptide fusion (GPS, HEK-293T) (PSI 1-6); higher = more stable
Settings: c terminus: a fixed tail appended
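Further: lentivirally expressed fusions sorted by FACS into six bins by GFP to DsRed ratio, PSI derived from sequencing read proportions per bin multiplied by bin number.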

Variant | protein stability index
FGGTGIPFGESNGNGYHVCNVKYK [V16Y] | 1.89
FGGTGIPFGESNGNGSHVCNVKYK [V16S] | 2.27
FGGTGIPFGESNGNGCHVCNVKYK [V16C] | 1.19
FGGTGIPFGESNGNGMHVCNVKYK [V16M] | 1.89
FGGTGIPFGESNGNGPHVCNVKYK [V16P] | 2.43
FGGTGIPFGESNGNGAHVCNVKYK [V16A] | 2.6
FGGTGIPFGESNNNGVHVCNVKYK [G13N] | 1.7
FGGTGIPFGESNRNGVHVCNVKYK [G13R] | 2.36
FGGTGIPFGESNKNGVHVCNVKYK [G13K] | 2.06
FGGTGIPFGESNINGVHVCNVKYK [G13I] | 1.38
FGGTGIPFGESNHNGVHVCNVKYK [G13H] | 1.77
FGGTGIPFGESNTNGVHVCNVKYK [G13T] | 2.58
FGGTGIPFGESNVNGVHVCNVKYK [G13V] | 2.17
FGGTGIPFGESNENGVHVCNVKYK [G13E] | 2.28
FGGTGIPFKESNGNGVHVCNVKYK [G9K] | 1.79
FGGTGIPFPESNGNGVHVCNVKYK [G9P] | 2.44
FGGTGIPFHESNGNGVHVCNVKYK [G9H] | 2.72
FGGTGIPFIESNGNGVHVCNVKYK [G9I] | 2.16
FGGTGIPFVESNGNGVHVCNVKYK [G9V] | 2.57
FGGTGIPFQESNGNGVHVCNVKYK [G9Q] | 1.88
FGGTGIPFSESNGNGVHVCNVKYK [G9S] | 1.74
FGGTGIPFNESNGNGVHVCNVKYK [G9N] | 2.29
FGGTGIPFGESNGNGVMVCNVKYK [H17M] | 1.37
FGGTGIPFGESNGNGVRVCNVKYK [H17R] | 2.13

Variant | protein stability index
FGGTGIPFGESNGNGVAVCNVKYK [H17A] | 1.92
FGGTGIPFGESNGNGVCVCNVKYK [H17C] | 1.75
FGGTGIPFGESNGNGVYVCNVKYK [H17Y] | 1.52
FGGTGIPFGESNGNGVKVCNVKYK [H17K] | 2.01
FGGTGIPFGESNGNGVSVCNVKYK [H17S] | 3.15
FGGTGIPFGESNGNAVHVCNVKYK [G15A] | 1.59
FGGTGIPFGESNGNTVHVCNVKYK [G15T] | 1.92
FGGTGIPFGESNGNVVHVCNVKYK [G15V] | 1.9
FGGTGIPFGESNGNHVHVCNVKYK [G15H] | 1.9
FGGTGIPFGESNGNFVHVCNVKYK [G15F] | 1.49
FGGTGIPFGESNGNNVHVCNVKYK [G15N] | 1.52
FGGTGIPFGESNGNLVHVCNVKYK [G15L] | 1.73
FGGTGIPFGESNGNPVHVCNVKYK [G15P] | 2.06
FGGTGIPFGESNGNGVHVCNVKYF [K24F] | 1
FGGTGIPFGESNGNGVHVCNVKYE [K24E] | 1.99
FGGTGIPFGESNGNGVHVCNVKYW [K24W] | 2.61
FGGTGIIFGESNGNGVHVCNVKYK [P7I] | 1.73
FGGTGIFFGESNGNGVHVCNVKYK [P7F] | 3.68
FGGTGIRFGESNGNGVHVCNVKYK [P7R] | 2.07
FGGTGITFGESNGNGVHVCNVKYK [P7T] | 2.33
FGGTGILFGESNGNGVHVCNVKYK [P7L] | 3.6
FGGTGIPFGESNGNGVHVCNVKQK [Y23Q] | 2.28
FGGTGIPFGESNGNGVHVCNVKVK [Y23V] | 2.23
FGGTGIPFGESNGNGVHVCNVKPK [Y23P] | 2.41

Variant | protein stability index
FGGTGIPFGESNGNGVHVCNVKTK [Y23T] | 2.14
FGGTGIPFGESNGNGVHVCNPKYK [V21P] | 1.92
FGGTGIPFGESNGNGVHVCNQKYK [V21Q] | 2.14
FGGTGIPFGESNGNGVHVCNSKYK [V21S] | 2.38
FGGTGIPFGESNGNGVHVCNGKYK [V21G] | 1.78
FGGTGIPFGESNGNGVHVCNIKYK [V21I] | 2.78
FGGTGIPFGESNGNGVHVCNEKYK [V21E] | 2.31
FGGTGIPFGESNGNGVHVCNRKYK [V21R] | 1.72
FGGTGIPFGESSGNGVHVCNVKYK [N12S] | 1.74
FGGTGIPFGESPGNGVHVCNVKYK [N12P] | 1.73
FGGTGIPFGESDGNGVHVCNVKYK [N12D] | 2.33
FGGTGIPFGESMGNGVHVCNVKYK [N12M] | 1.9
FGGTGIPFGESIGNGVHVCNVKYK [N12I] | 1.58
FGGTGIPFGNSNGNGVHVCNVKYK [E10N] | 3.06
FGGTGIPFGKSNGNGVHVCNVKYK [E10K] | 1.46
FGGTGIPFGWSNGNGVHVCNVKYK [E10W] | 2.59
FGGTGIPFGQSNGNGVHVCNVKYK [E10Q] | 2.94
FGGTGIPFGHSNGNGVHVCNVKYK [E10H] | 1.99
FGGTGIPFGISNGNGVHVCNVKYK [E10I] | 2.39
FGGTGIPFGYSNGNGVHVCNVKYK [E10Y] | 1.45
FGGTGIPFGVSNGNGVHVCNVKYK [E10V] | 2.49
FGGTGIPFGGSNGNGVHVCNVKYK [E10G] | 1.68
FGGTGIPFGFSNGNGVHVCNVKYK [E10F] | 1.7
FGGTGIPFGEENGNGVHVCNVKYK [S11E] | 2.82

Variant | protein stability index
FGGTGIPFGECNGNGVHVCNVKYK [S11C] | 1.82
FGGTGIPFGETNGNGVHVCNVKYK [S11T] | 1.96
FGGTGIPFGEMNGNGVHVCNVKYK [S11M] | 2.25
FGGTGIPFGEGNGNGVHVCNVKYK [S11G] | 1.54
FGGTGIPEGESNGNGVHVCNVKYK [F8E] | 4.3
FGGTGIPCGESNGNGVHVCNVKYK [F8C] | 3.02
FGGTGIPWGESNGNGVHVCNVKYK [F8W] | 1.98
FGGTGIPVGESNGNGVHVCNVKYK [F8V] | 2.83
FGGTGIPNGESNGNGVHVCNVKYK [F8N] | 3.61
FGGTGIPKGESNGNGVHVCNVKYK [F8K] | 3.84
FGGTGIPQGESNGNGVHVCNVKYK [F8Q] | 3.75
SGGTGIPFGESNGNGVHVCNVKYK [F1S] | 4.25
YGGTGIPFGESNGNGVHVCNVKYK [F1Y] | 2.23
GGGTGIPFGESNGNGVHVCNVKYK [F1G] | 4.3
FGGTGIPFGESNGFGVHVCNVKYK [N14F] | 1.62
FGGTGIPFGESNGTGVHVCNVKYK [N14T] | 1.98
FGGTGIPFGESNGQGVHVCNVKYK [N14Q] | 2.03
FGGTGIPFGESNGHGVHVCNVKYK [N14H] | 2.12
FGGTGIPFGESNGIGVHVCNVKYK [N14I] | 1.2
FGGTGIPFGESNGKGVHVCNVKYK [N14K] | 1.81
FGGTGIPFGESNGGGVHVCNVKYK [N14G] | 1.54
FGGTGIPFGESNGMGVHVCNVKYK [N14M] | 1.99
